Results: patent EP4361176A1 (CHUGAI SEIYAKU KABUSHIKI KAISHA, dated 2024)
Positions count from the first letter of the chain named. Names and notes keep the numbering of the source.

T1: human CTLA4 (soluble analyte of the Biacore assays of Reference Example 3-3) (human, UniProt P16410 36-161)
T1 construct: also called hCTLA4
T1 sequence: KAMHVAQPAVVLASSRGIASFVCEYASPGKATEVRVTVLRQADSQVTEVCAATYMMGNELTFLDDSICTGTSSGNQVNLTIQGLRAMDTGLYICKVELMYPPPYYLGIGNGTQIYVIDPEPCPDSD

T2: human FcγRIIa H extracellular domain (human, UniProt P12318 34-217)
T2 construct: extracellular domain; Made by the method of WO2014104165; also called hFcγR IIa H; FcyRIIaH
T2 sequence (looked up): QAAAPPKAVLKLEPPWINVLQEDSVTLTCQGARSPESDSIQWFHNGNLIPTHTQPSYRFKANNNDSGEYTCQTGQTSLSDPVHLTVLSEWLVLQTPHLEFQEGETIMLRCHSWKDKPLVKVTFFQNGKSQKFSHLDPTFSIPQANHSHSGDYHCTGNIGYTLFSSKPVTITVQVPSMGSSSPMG

T3: hFcyRIIaH on hFcyRIIaH-expressing Jurkat cells (human, UniProt P12318 34-317)
T3 sequence (looked up): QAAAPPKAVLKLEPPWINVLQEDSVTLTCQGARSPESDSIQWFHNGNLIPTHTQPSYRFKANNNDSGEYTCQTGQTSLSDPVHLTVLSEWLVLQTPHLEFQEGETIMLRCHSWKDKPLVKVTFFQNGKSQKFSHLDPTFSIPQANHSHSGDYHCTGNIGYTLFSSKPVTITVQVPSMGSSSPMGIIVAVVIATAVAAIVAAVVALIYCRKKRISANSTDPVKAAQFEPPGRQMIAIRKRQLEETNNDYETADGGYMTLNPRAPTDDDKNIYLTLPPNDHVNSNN

B1: H240-Kn462/L73-k0//H240-Hl445/L73-k0 (antibody, human IgG1, kappa)
heavy 1: QDQLVQSGAEVKKPGASVKVSCKASGFNIKDTYIQWVRQAPGQGLEWMGRIDPLRKQTKYREKFEGRVTITADTSTNTAYMELSSLRSEDTAVYYCVRSGREFDYWGQGTLVTVSSASTKGPSVFPLAPSSKSTSGGTAALGCLVKDYFPEPVTVSWNSGALTSGVHTFPAVLQSSGLYSLSSVVTVPSSSLGTQTYICNVNHKPSNTKVDKKVEPKSCDKTHTCPPCPAPEFQWGPMVFLFPPKPKDVLMISRTPEVTCVVVDVSDEEPEVKFNWYVDGVEVHNAKTKPREEQYNATYRVVSVLPVLHQDWLNGKEYKCKVSNDALPAPIEKTISKAKGQPREPQVCTLPPSRDELTKNQVSLWCLVKGFYPSDIAVEWESNGQPENNYKTTPPVLDSDGSFFLYSKLTVDKSRWQQGNVFSCSVMHEALHNHYTQKSLSLSP
heavy 2: QDQLVQSGAEVKKPGASVKVSCKASGFNIKDTYIQWVRQAPGQGLEWMGRIDPLRKQTKYREKFEGRVTITADTSTNTAYMELSSLRSEDTAVYYCVRSGREFDYWGQGTLVTVSSASTKGPSVFPLAPSSKSTSGGTAALGCLVKDYFPEPVTVSWNSGALTSGVHTFPAVLQSSGLYSLSSVVTVPSSSLGTQTYICNVNHKPSNTKVDKKVEPKSCDKTHTCPPCPAPELLAGPSVFLFPPKPKDVLMISRTPEVTCVVVDVSHEEPEVKFNWYVDGVEVHNAKTKPREEQYNATYRVVSVLPVLHQDWLNGKEYKCKVSNDALPKPDEETISKAKGQPREPQVYTLPPSRCELTKNQVSLSCAVKGFYPSDIAVEWESNGQPENNYKTTPPVLDSDGSFFLVSKLTVDKSRWQQGNVFSCSVMHEALHNHYTQKSLSLSP
light: DIQMTQSPSSLSASVGDRVTITCRASQDIHKYIAWYQQKPGQAPRLLIQYTSTLQPGVPSRFSGSGSGTDYTFTISSLQPEDIATYYCLQYEQLRTFGGGTKVEIKRTVAAPSVFIFPPSDEQLKSGTASVVCLLNNFYPREAKVQWKVDNALQSGNSQESVTEQDSKDSTYSLSSTLTLSKADYEKHKVYACEVTHQGLSSPVTKSFNRGEC
notes: also called EGL-ART6; ART6
B2: H240-GASDALIE/L73-k0 (antibody, human IgG1, kappa)
heavy: QDQLVQSGAEVKKPGASVKVSCKASGFNIKDTYIQWVRQAPGQGLEWMGRIDPLRKQTKYREKFEGRVTITADTSTNTAYMELSSLRSEDTAVYYCVRSGREFDYWGQGTLVTVSSASTKGPSVFPLAPSSKSTSGGTAALGCLVKDYFPEPVTVSWNSGALTSGVHTFPAVLQSSGLYSLSSVVTVPSSSLGTQTYICNVNHKPSNTKVDKKVEPKSCDKTHTCPPCPAPELLAGPDVFLFPPKPKDTLMISRTPEVTCVVVDVSHEDPEVKFNWYVDGVEVHNAKTKPREEQYNSTYRVVSVLTVLHQDWLNGKEYKCKVSNKALPLPEEKTISKAKGQPREPQVYTLPPSRDELTKNQVSLTCLVKGFYPSDIAVEWESNGQPENNYKTTPPVLDSDGSFFLYSKLTVDKSRWQQGNVFSCSVMHEALHNHYTQKSLSLSP
light: B1 light
B3: H240-Kn037/L73-k0//H240-Hl036/L73-k0 (antibody, human IgG1, kappa)
heavy 1: B2 heavy with L329A, Y348C, T365W
heavy 2: B2 heavy with L329A, D355C, T365S, L367A, Y406V
light: B1 light
notes: also called EGL-GASDIE; GASDIE
B4: H240-Kn494/L73-k0//H240-Hl514/L73-k0 (antibody, human IgG1, kappa)
heavy 1: B1 heavy 1 with D325K, I331E
heavy 2: B1 heavy 2 with A235G, K329A, D331E
light: B1 light
notes: '1332E' read as I332E; also called EGL-ART10; ART10
B5: H240-Kn498/L73-k0//H240-Hl518/L73-k0 (antibody, human IgG1, kappa)
heavy 1: B1 heavy 1 with D325K, A329M
heavy 2: B1 heavy 2 with A235G, K329M, D331I
light: B1 light
notes: also called EGL-ART12; ART12
B6: 04H1207-G1m/04L1086-lam1 (antibody, human IgG1, lambda, V domains shown)
VH: EVQLVESGGGLVKPGGSLRLSCAASGFTFSSKTMNWVRQAPGKGLEWVSSISTRSGYIYYAESVKGRFTISRDNAKNSLYLQMNSLRAEDTAVYYCARYGKREDMLWVFDYWGQGTLVTVSS
VL: QSALTQPPSASGSPGQTVTISCDGPSTGVGDYNYVHWYQQHPGKAPKLMIYFTSKKPSGVPDRFSGSKSGNTASLTVSGLQAEDEADYFCQTYAAPLGPMFGGGTKLTVLG
B7: 04H1077-G1m/04L1066-lam1 (antibody, human IgG1, lambda, V domains shown)
VH: B6 VH with G10D, S17G, K32R
VL: B6 VL with G28D, Y34W, Q91S
B8: 04H1077-G1m/04L1067-lam1 (antibody, human IgG1, lambda, V domains shown)
VH: B6 VH with G10D, S17G, K32R
VL: B6 VL with Q91S
B9: 04H1077-G1m/04L1086-lam1 (antibody, human IgG1, lambda, V domains shown)
VH: B6 VH with G10D, S17G, K32R
VL: B6 VL
B10: 04H1077-G1m/04L1041-lam1 (antibody, human IgG1, lambda, V domains shown)
VH: B6 VH with G10D, S17G, K32R
VL: B6 VL with G28D, Q91S
B11: 04H1077-G1m/04L1305-k0MT (antibody, human IgG1, kappa, V domains shown)
VH: B6 VH with G10D, S17G, K32R
VL: DIVMTQSPLSLPVTPGEPASISCDGPSTGVGDYNYVHWYQQKPGQAPRLLIYFTSKKPSGVPDRFSGSGSGTDFTLKISRVEAEDVGVYYCQTYAAPLGPMFGQGTKLEIKR
B12: 04H1208-G1m/04L1086-lam1 (antibody, human IgG1, lambda, V domains shown)
VH: B6 VH with E62R
VL: B6 VL
B13: 04H1077-G1m/04L1034-lam1 (antibody, human IgG1, lambda, V domains shown)
VH: B6 VH with G10D, S17G, K32R
VL: B6 VL with G28D, Y34W, H36S, Q91S

What follows are binders tested against hFcyRIIIaV on hFcyRIIIaV-expressing Jurkat cells (human, UniProt P08637 17-254) (assay: cell-based or functional assay).
hFcyRIIIaV on hFcyRIIIaV-expressing Jurkat cells, sequence (P08637 17-254): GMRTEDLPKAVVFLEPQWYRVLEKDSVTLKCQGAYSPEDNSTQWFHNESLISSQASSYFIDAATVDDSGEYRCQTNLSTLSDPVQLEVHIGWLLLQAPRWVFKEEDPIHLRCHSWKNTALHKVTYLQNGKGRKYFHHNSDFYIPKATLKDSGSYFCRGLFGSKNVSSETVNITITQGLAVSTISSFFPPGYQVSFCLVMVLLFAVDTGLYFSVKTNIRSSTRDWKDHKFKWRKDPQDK

EC50 value (µg/mL), ADCC reporter bioassay (fold induction of luminescence), Hepa1-6/hEREG target cells [µg/mL] | Binder
0.0015 | B1
0.00208 | B2
0.0037 | B3
0.000107 | B4
0.000304 | B5

The binders below were run against T1, human CTLA4 (soluble analyte of the …) (assay: SPR, 1000 nM CTLA4, per unit antibody, ATP 100 uM).

Binding to Human CTLA4 | Binder
0.196 | B6
0.185 | B7
0.192 | B8
0.181 | B9
0.172 | B10
0.185 | B11
0.17 | B12
0.114 | B13

What follows are binders tested against T1, human CTLA4 (soluble analyte of the …) (assay: SPR, 1000 nM CTLA4, per unit antibody, ATP 1 uM).

Binding to Human CTLA4 | Binder
0.047 | B6
0.057 | B7
0.041 | B8
0.031 | B9
0.023 | B10
0.046 | B11
0.03 | B12
0.007 | B13

What follows are binders tested against T1, human CTLA4 (soluble analyte of the …) (assay: SPR, 1000 nM CTLA4, per unit antibody, no ATP).

Binding to Human CTLA4 | Binder
0.013 | B6
0.02 | B7
0.012 | B8
0.01 | B9
0.006 | B10
0.018 | B11
0.005 | B12
0.004 | B13

The binders below were run against T1, human CTLA4 (soluble analyte of the …) (assay: SPR, 1000 nM CTLA4, per unit antibody, ATP 10 uM).

Binding to Human CTLA4 | Binder
0.137 | B6
0.142 | B7
0.131 | B8
0.106 | B9
0.094 | B10
0.128 | B11
0.108 | B12
0.041 | B13

What follows are binders tested against T4, human FcγRIIIa F extracellular domain (human, UniProt P08637 17-208) (assay: SPR; KD for FcγRIIb divided by KD for this FcγR).
T4 construct: extracellular domain; Made by the method of WO2014104165; also called hFcγR IIIa F; FcyRIIIaF
T4 sequence (P08637 17-208): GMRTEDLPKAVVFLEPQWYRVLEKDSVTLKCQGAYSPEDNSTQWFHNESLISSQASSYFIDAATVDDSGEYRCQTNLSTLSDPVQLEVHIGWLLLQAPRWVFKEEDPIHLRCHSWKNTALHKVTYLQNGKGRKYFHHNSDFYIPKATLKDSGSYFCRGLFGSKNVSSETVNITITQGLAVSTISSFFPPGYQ

A/I ratio (KD for FcγRIIb divided by KD for each FcyR) | Binder
976 | B1
89.3 | B2
18.9 | B3
3160 | B4
4310 | B5

What follows are binders tested against T2, human FcγRIIa H extracellular domain (assay: SPR; KD for FcγRIIb divided by KD for this FcγR).

A/I ratio (KD for FcγRIIb divided by KD for each FcyR) | Binder
307 | B1
16.5 | B2
18.2 | B3
17.3 | B4
60.3 | B5

These binders were tested against T3, hFcyRIIaH on hFcyRIIaH-expressing … (assay: cell-based or functional assay).

EC50 value (µg/mL), ADCP reporter bioassay (fold induction of luminescence), Hepa1-6/hEREG target cells [µg/mL] | Binder
0.0192 | B1
0.0324 | B2
0.0149 | B3
0.0419 | B4
0.085 | B5
